The values below come from the supplement of paper PMC10567573.

± gives the standard deviation.

The series can be described thus: protein stability index of a GFP-peptide fusion (GPS, HEK-293T) (PSI 1-6); higher = more stable. The conditions noted are these: c terminus: a fixed tail appended.
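Also: 24-mer peptide tiles fused after GFP, lentivirally expressed, FACS-sorted into six equal bins by GFP/DsRed ratio, decoded by Illumina sequencing, PSI is the read-weighted mean bin number.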

For the setting “treatment: MLN4924 1 uM, 8 h”, VEILMILFAFMLVYPKEFHLNRGN [PPEF2] registered a protein stability index of 3.58 ± 0.62.
As for VEKQADTLNVIELNVQKTVDYTGQ [STX11], the protein stability index was 4.6 ± 0.21 (treatment: DMSO) and 4.58 ± 0.15 (treatment: MLN4924 1 uM, 8 h).
On the same counts, the results for VERALQLPREPGDSAQFTKALAII [FEM1A] are 3.1 ± 0.051 and 2.8 ± 0.31.
Taken in the same sequence, the figures for VESSLNVKTKKNAPSATIHQGEEE [FBXO34] were 5.37 ± 0.22 and 5.49 ± 0.2.
On the same counts, the results for VETSAKNAININELFIEISRRIPS [RAB22A] are 2.34 ± 0.21 and 2.29 ± 0.52.
As to VFDAEGYVKPQSCIDIVIRHVAPI [MOSPD3], the protein stability index is 2.19 ± 0.16 (treatment: DMSO) and 2.19 ± 0.51 (treatment: MLN4924 1 uM, 8 h).
On the same counts, the results for VFDNAIRAALISRRHLQFWKSHLR [RHOBTB2] are 2.23 ± 0.38 and 2.1 ± 0.3.
On the same counts, the results for VFVGNQLIPQPLDSEEDEKMEEDI [PCMTD1] are 4.99 ± 0.2 and 5.07 ± 0.22.
Taken in the same sequence, the figures for VGGGFGGGFGGGDGGLLSGNEKIT [KRT15] were 4.04 ± 0.39 and 4.16 ± 0.14.
Take VGLNTIADLWYLFGDLSLSLVTVG [POMT2]: the protein stability index was determined as 3.71 ± 0.08 (treatment: DMSO) and 3.16 ± 0.79 (treatment: MLN4924 1 uM, 8 h).
On the same counts, the results for VGQSLRIKEQEVCKLQEQLEATVK [SASS6] are 4.15 ± 0.44 and 4.26 ± 0.19.
Taken in the same sequence, the figures for VGTGTFGRVHLVKEKTAKHFFALK [PRKX] were 2.46 ± 0.15 and 2.85 ± 0.17.
On the same counts, the results for VHKTKEQFGQDGPISVHCSAGVGR [PTPRD] are 4.02 ± 0.23 and 4.15 ± 0.25.
VHRDLKPENLLLASKSKGAAVKLA [CAMK2D]: the protein stability index by setting is: (treatment: DMSO) 3.58 ± 0.77; (treatment: MLN4924 1 uM, 8 h) 3.42 ± 0.065.
On the same counts, the results for VIKDKDDSVDAQNICHVWHMNVEA [RNF180] are 3.98 ± 0.047 and 3.66 ± 0.17.
For VKGLFKSENCPKVISCEFAHNSNW [LARP4], the protein stability index turned out to be 2.17 ± 0.24 (treatment: DMSO) and 2.4 ± 0.24 (treatment: MLN4924 1 uM, 8 h).
On the same counts, the results for VKWLSFHSGYDFGYLIKILTNSNL [CNOT7] are 2.58 ± 0.21 and 2.86 ± 0.69.
On the same counts, the results for VLALGLRTDVGITHQHWQQFEPQL [RSAD1] are 2.23 ± 0.39 and 2.35 ± 0.21.
Taken in the same sequence, the figures for VLELHHSKLDTTKALNLLPANTQI [VPS39] were 3.03 ± 0.14 and 3.12 ± 0.15.
As to VLLHGPPGTGKTSLCKALAQKLTI [TRIP13], the protein stability index was found to be 2.58 ± 0.6 (treatment: DMSO) and 2.31 ± 0.53 (treatment: MLN4924 1 uM, 8 h).
VLNEEGICTQKCALNWTDIPVAME [VPS39] registered a protein stability index (treatment: DMSO) of 3.43 ± 0.18 and a protein stability index (treatment: MLN4924 1 uM, 8 h) of 3.39 ± 0.28.
On the same counts, the results for VMLKRIHSLYRRTGASFQKAQQEF [SCAMP3] are 2.49 ± 0.35 and 2.68 ± 0.46.
Take VNLQVATYSKFQPQSPDFLDITNP [UFD1]: the protein stability index by setting is: (treatment: DMSO) 2.53 ± 0.23; (treatment: MLN4924 1 uM, 8 h) 2.57 ± 0.27.
Taken in the same sequence, the figures for VNRRISIVGFGLYGSIHGPTDYQV [BTBD1] were 2.65 ± 0.77 and 2.45 ± 1.1.
Taken in the same sequence, the figures for VPAPQPPVTKPLFPSAGQAQAAVQ [ZNF207] were 4.39 ± 0.41 and 4.59 ± 0.18.
Taken in the same sequence, the figures for VPSLNAALMHTLQRHRDILQVIYW [GOSR1] were 2.23 ± 0.55 and 2.4 ± 0.41.
On to VQEQQKQLQDQDQKLLEQTQIIGE [FBXO28], for which the protein stability index reads like this: (treatment: DMSO) 5.43 ± 0.28; (treatment: MLN4924 1 uM, 8 h) 5.36 ± 0.09.
On the same counts, the results for VQPMDRLPYQHFSAHFTSGPLVPR [TBX5] are 2.88 ± 0.27 and 2.88 ± 0.33.
On the same counts, the results for VRDSDDNSPLHIAALNNHPDIMNL [FEM1C] are 4.26 ± 0.24 and 4.42 ± 0.2.
Taken in the same sequence, the figures for VRHEGTRTLWSGLPATLVMTVPAT [SLC25A39] were 2.33 ± 0.18 and 2.27 ± 0.13.
With VRHLEEENRGIVVLGINRAYGKNS [AUH], the protein stability index is 3.15 ± 0.36 (treatment: DMSO) and 3.31 ± 0.22 (treatment: MLN4924 1 uM, 8 h).
On the same counts, the results for VRNQQSLAVSNMGARSKGQCPEPP [PTPN9] are 4.3 ± 0.11 and 4.21 ± 0.39.
Taken in the same sequence, the figures for VSAQRERPRRRDGPEHATRLNGTA [DVL3] were 4.7 ± 0.17 and 4.81 ± 0.21.
Taken in the same sequence, the figures for VSDITDLELLDKIERSKIVSTMRC [PPEF2] were 3.69 ± 0.27 and 3.52 ± 0.23.
For the sequence VSEWASKAKANGITMYAVGVGKAI [MATN2], the protein stability index turned out to be 2.33 ± 0.3 (treatment: DMSO) and 2.36 ± 0.2 (treatment: MLN4924 1 uM, 8 h).
On the same counts, the results for VSGSHFVGVDGVRAFLQTYSHEVS [PCDHGA10] are 2.49 ± 0.27 and 2.24 ± 0.24.
On the same counts, the results for VSNTRLIAAATSVLKTRFSYAFPK [CCNC] are 2.24 ± 0.44 and 1.96 ± 0.34.
